The DeepSol protein solubility set

Experiment: soluble on expression in E. coli; label from the status in PepcDB or PDB records

Sequence	soluble on expression in E. coli
FNGHSLKAYPRMTFQLTIKGGNEMNYRIEEKEAFRIVGIKKRVPIIFKGINPEIASMWESLDEKAINKLKELSNVAPSGLISASTNFSEGRTEENGELDHYIGAATTKRCPDNFSRLEVPASTWAVFESIGPFPDTLQEVWGRIYSEWFPSSNYEQIEGPEILWNEHKDVTSPSFKSEIWIPITKK	not soluble
FSDISSLQRFVKFSQSDWLVEMLAQERFTSHFQPIVSMKNTSEIYGYEALLRGLDEQGNLIPPQPIVELATEAGLLPQLDRIARLSTIAQFSSHQVSGQIFINFAPTAVYDPASCLKSTVEAIDQAGISHERVVFEVVESDSPQDLDHLKAVLKYYRDAGFSIALDDLGSGYSSLNLLHQLRPDFIKLDMELIRDVHQDLYKASITEKLLEIAQKLNIRTVAEGIECIEELNWVQERGATFAQGYLIAKP	not soluble
FSNAPISAEEQMIRAFVKSVEYMSPRKIGALVAIQRVRTLQEYISTGIPLDAKISAELLINIFIPNTPLHDGAVIIKEERIAVTSAYLPLTKNTGISKEFGTRHRAAIGLSEVSDALTFVVSEETGGISITYNGRFKHNL	not soluble
FVRMIFSAEKSVWIQTPYLIPDDSMINALLVAVRSGVDVRIMIPCMPDHPFIYRATQYYANYLHKRGIKIYIYDSGFIHAKTMVIDDELAMVGTTNQDIRSYSLNFEVSTFIYNPDIAWMLAQVFEEDIEKSVLLTDEIIKKQGYWLRFKQNFSRLLSPVL	not soluble
GACEQNEDWVVNEPMQSFEENPEYAPLNTIPDWVSEKVTPKEYELWRTMSSRYEINYSFLKKDISEKRKKEIYDCINNICERIEKGQINKYEGFLNIADEDGTTLSDSQYFGRIATRSPEGGAEYKTNGCTLYTHSLGPYIKAAVTYKKSDDDVTITSSSVYTGSPYLGNDPSFSGASSVSYDKDKKLIAASCSGTLSFKDGSRKVEVTVQKTGFMIP	soluble
GAHMAGGRSWCLRRVGMSAGWLLLEDGCEVTVGRGFGVTYQLVSKICPLMISRNHCVLKQNPEGQWTIMDNKSLNGVWLNRARLEPLRVYSIHQGDYIQLGVPLENKENAEYEYEVTEEDWETIYPCLSPKNDQMIEK	soluble
GALKRAEELKTQANDYFKAKDYENAIKFYSQAIELNPSNAIYYGNRSLAYLRTECYGYALGDATRAIELDKKYIKGYYRRAASNMALGKFRAALRDYETVVKVKPHDKDAKMKYQECNKIVKQKAFERAIAGDEHKRSVVDSLDIESMTIEDEYSGPKLEDGKVTISFMKELMQWYKDQKKLHRKCAYQILVQVKEVLSKLSTLVETTLKETEKITVCGDTHGQFYDLLNIFELNGLPSETNPYIFNGDFVDRGSFSVEVILTLFGFKLLYPDHFHLLRGNHETDNMNQIYGFEGEVKAKYTAQMYELFSEVFEWLPLAQCINGKVLIMHGGLFSEDGVTLDDIRKIERNRQPPDSGPMCDLLWSDPQPQNGRSISKRGVSCQFGPDVTKAFLEENNLDYIIRSHEVKAEGYEVAHGGRCVTVFSAPNYCDQMGNKASYIHLQGSDLRPQFHQFTAVPHPNVKPMAYANTLLQLGMM	soluble
GAMADDAAIQQTLAKMGIKSSDIQPAPVAGMKTVLTNSGVLYITDDGKHIIQGPMYDVSGTAPVNVTNKMLLKQLNALEKEMIVYKAPQEKHVITVFTDITCGYSHKLHEQMADYNALGITVRYLAFPRQGLDSDAEKEMKAIWCAKDKNKAFDDVMAGKSVAPASCDVDIADHYALGVQLGVSGTPAVVLSNGTLVPGYQPPKEMKEFLDEHQKMTSGK	soluble
GAMADRDRLRPPLDERSLRDQLIGAGSGWRQLDVVAQTGSTNADLLARAASGADIDGVVLIAEHQTAGRGRHGRGWAATARAQIILSVGVRVVDVPVQAWGWLSLAAGLAVLDSVAPLIAVPPAETGLKWPNDVLARGGKLAGILAEVAQPFVVLGVGLNVTQAPEEVDPDATSLLDLGVAAPDRNRIASRLLRELEARIIQWRNANPQLAADYRARSLTIGSRVRVELPGGQDVVGIARDIDDQGRLCLDVGGRTVVVSAGDVVHLR	soluble
GAMAMSGGLPELGSKISLISKADIRYEGRLYTVDPQECTIALSSVRSFGTEDRDTQFQIAPQSQIYDYILFRGSDIKDIRVVNNHTLP	soluble
GAMAVKVARPCRKIEKWTYLELKGSKANEGVPQAMTAFAEFLNRTGIPINPRFSPGMSMSVPGSEKEFFAKVKELMSSHQFVVVLLPRKDVAIYNMVKRAADITFGVHTVCCVAEKFLSTKGQLGYFANVGLKVNLKFGGTNHNI	soluble
GAMHTFYGTRLLNPKPVDFALEGPQGPVRLSQFQDKVVLLFFGFTRCPDVCPTTLLALKRAYEKLPPKAQERVQVIFVSVDPERDPPEVADRYAKAFHPSFLGLSGSPEAVREAAQTFGVFYQKSQYRGPGEYLVDHTATTFVVKEGRLVLLYSPDKAEATDRVVADLQALL	soluble
GAMVVSPAGADRRIPTWASRVVSGLARDRPVVVTKEDLTQRLTEAGCGRDPDSAIRELRRIGWLVQLPVKGTWAFIPPGEAAISDPYLPLRSWLARDQNAGFMLAGASAAWHLGYLDRQPDGRIPIWLPPAKRLPDGLASYVSVVRIPWNAADTALLAPRPALLVRRRLDLVAWATGLPALGPEALLVQIATRPASFGPWADLVPHLDDLVADCSDERLERLLSGRPTSAWQRASYLLDSGGEPARGQALLAKRHTEVMPVTRFTTAHSRDRGESVWAPEYQLVDELVVPLLRVIGKA	soluble
GANTTETPVKDVELDGRWDDPIRSAATNCPITVFTDGYLLTLKNASPDRDMTIRITDMAKGGVVYENDIPEVQSAYITISIANFPAEEYKLEITGTPSGHLTGYFTKE	soluble
GATVHELSRDKKKDTVPWFPRTIQELDRFANQILSYGAELDADHPGFKDPVYRARRKQFADIAYNYRHGQPIPRVEYMEEEKKTWGTVFKTLKSLYKTHACYEYNHIFPLLEKYCGFHEDNIPQLEDVSQFLQTCTGFRLRPVAGLLSSRDFLGGLAFRVFHCTQYIRHGSKPMYTPEPDICHELLGHVPLFSDRSFAQFSQEIGLASLGAPDEYIEKLATIYWFTVEFGLCKQGDSIKAYGAGLLSSFGELQYCLSEKPKLLPLELEKTAIQNYTVTEFQPLYYVAESFNDAKEKVRNFAATIPRPFSVRYDPYTQRIEVLDNT	soluble
GDAFCNPQATMDFLRFKLHQHQREVFAVMMLDSQHRLIEFNEMFFGTIDSASVYPREVVKAVLLCNAAAVIFAHNHPSGCAEPSSADRRITERLIAALATIDVPVLDHIVVADTCVSFAERGLL	not soluble
GDYIYADSNNNGVYGDDNDYTFQKTSNKPKYNFGFQASAAWKGFDLSMVWAGAAGFSIYWGATTGYNAASTEWGSTIAQRVAENHYFYNPENPDDPRTNINAKYPRMAYIDGYVQNRHGNTTLWLYKGDYIKLKNLSLGYTLPKNWVSKIAMQNARVYVSAENLLTITGFEGQDPESATGMGYSPFRTIAIGANITF	not soluble
GEDPAIQVTGARGASVDMSTLDAVTTALDKEHLSHKSIAFENGSILVRFNDTDTQISARDVISEALGKDKIVALNLAPSTPDWLEAIGASPLKLGLDLRGGVHFLMEVDMDAAMEKLVGQQEEAFRSELRDAKIRYRAIRPSGKEGVEVLLRDEEQLAEAKRTLTKNHPDMNFVESDSNGRYALIATFTEQRLQEIRNYAVEQNITILRNRVNELGVAEPLVQRQGASRIVVELPGVQDTARAKEILGATATLEFREVDDKADLAAAANGRAPAGSEIKQDRDGRPVVLKKRVILSGASITDASSSVDEYGRPQVNISLDSEGGNKMSAFSKKNIGKLMATVFAEYKDSGRKTPEGKVILTKHEEVINQATIQSALGRNFRITGIDSAAEAHN	not soluble
GEEKKDSKAFIDVSAATLWTAPDSLRPIDVPSATNPVDLWKWTKSMTLDEKLWLTNANKLETQALLGQEVTVVDKKGDWVKVLVHGQPTPRNEEGYPGWMPEKQLTYNQEFADKTNEPFVLVTKPTAILYINPSEKHKSLEVSYNTRLPLLSEDTISYRVLLPNGQKAWLRKNDGTFYRSQNDIPTPAADDLINTGKMFLGLPYIWAGTSGFGFDCSGFTHTIYKSHGITIPRDSGPQSRNGVAVDKEHLQKGDLIFFAHDQGKGSVHHVAMYIGDGNMIHSPRAERSVEIIPLNTPGYIEEYAGARRYLP	soluble
GEGLGEEVIEEVYEELLSSFDTEYGGFSGAPKFPTPHKISFLLRYWRRSRNPEALHMAEYTLDKMRRGGIYDHLGSGFHRYSTDSMWLLPHFEKMLYDQALTAIAYTEAYQVTGKDLYKETAEGILDYVLRDLTSPEGGFYCGEDADVEREEGKYYLWTLEEIRSILDPEDSELIIKMFNLREEGNFEEEIRGRETGTNLFYMARSPGSLAAKMKIPVEEVEKKVKAAREKLLKARYERKRPSLDDKILTDWNGLMIAAFAKGYQVFGEQRYLKAAEKAADFILMALYSPGDGLLHRYRDGVAGISGTSDDYAFLIHGLLELYEAGFKMRYLKAAVSLNSELLECFWDPVNGGLYFTANDSEALIFRKKE	not soluble
GETSVPPGSALVGPSCVMDDFRDPQRWKECAKQGKMPCYFDLIEENVYLTERKKNKSHRDIKRMQCECTPLSKDERAQGEIACGEDCLNRLLMIECSSRCPNGDYCSNRRFQRKQHADVEVILTEKKGWGLRAAKDLPSNTFVLEYCGEVLDHKEFKARVKEYARNKNIHYYFMALKNDEIIDATQKGNCSRFMNHSCEPNCETQKWTVNGQLRVGFFTTKLVPSGSELTFDYQFQRYGKEAQKCFCGSANCRGYLGGENRVSIRAAGGKMKKERSRK	soluble
GGCYERIFAVPQQERTSLRVVTALAHGCDLVITRAGPTPRTYTPLQTQRFRNSLRSDAGCVIMMGDHVVSPAARLASAVVGYHGIGKGTGRIKAVEITVTGIAKGFYRTSRVIVGKHIAPAAEKTTMKVV	not soluble
GGQIVHTETTEVVLCGDPLSGFGLQLQGGIFATETLSSPPLVCFIEPDSPAERCGLLQVGDRVLSINGIATEDGTMEEANQLLRDAALAHKVVLEVEFD	soluble
GGSCFKCGKKGHFAKNCHEHAHNNAEPKVPGLCPRCKRGKHWANECKSKTDNQGNPIPPH	soluble
GGVRPATNAYGGGSTTDNPNRFMYYPSHPVPGTQGGVVLAAYSWSDDAARWDSFDDAERYGYALENLQSVHGRRIEVFYTGAGQTQSWLRDPYACGEAAVYTPHQMTAFHLDVVRPEGPVYFAGEHVSLKHAWIEGAVETAVRAAIAVNEAPVGDTGVTAAAGRRGAAAATEPMREEALTS	soluble
GHHHHHHAIAENLYFQSAQYKGAASEAGRAMHLMKKREKQREQMEQMKQRIAEENIMKSNIDKKFSAHYDAVEAELKSSTVGLVTLNDMKAKQEALVKEREKQLAKKEQSKELQMKLEKLREKERKKEAKRKISSLSFTLEEEEEGGEEEEEAAMYEEEMEREEITTKKRKLGKNPDVDTSFLPDRDREEEENRLREELRQEWEAKQEKIKSEEIEITFSYWDGSGHRRTVKMRKGNTMQQFLQKALEILRKDFSELRSAGVEQLMYIKEDLIIPHHHSFYDFIVTKARGKSGPLFNFDVHDDVRLLSDATVEKDESHAGKVVLRSWYEKNKHIFPASRWEPYDPEKKWDKYTIR	not soluble
GHHHHHHLEKCVFVTVGTTSFDDLIACVSAPDSLQKIESLGYNRLILQIGRGTVVPEPFSTESFTLDVYRYKDSLKEDIQKADLVISHAGAGSCLETLEKGKPLVVVINEKLMNNHQLELAKQLHKEGHLFYCTCSTLPGLLQSMDLSTLKCYPPGQPEKFSAFLDKVVGLQK	not soluble
